One assay relates to SoC-resistant AML cells. Put plainly: Ex vivo killing of VEN/AZA-treated AML patient leukemic cells. The format is cell-based, human. The following applies: 5 μg/mL of antibody; fresh BM leukemic cells from a patient treated with VEN/AZA. On the procedure: (§1) Ex vivo killing of VEN/AZA-treated AML patient leukemic cells (FIG. 7A) or T cells or NK cells (FIG. 7B). Values normalized to vehicle control. Lines represent linear regression of NC525 concentration versus normalized cell killing. […] FIGS. 7D and 7E show in vivo leukemic growth as measured by whole-body luminescence of MV4-11-luciferase cells (FIG. 7D) or survival (FIG. 7E) of CDX mice treated with 10 mg/kg isotype control (gray) or NC525 (red) or 100 mg/kg VEN (pink) or 0.5 mg/kg AZA (blue) or combination therapy (green or yellow, respectively). BLoD, below limit of detection. n=9 mice per group. P values determined by 2-way ANOVA or log-rank (Mantel-Cox) test, respectively. FIGS. 7F and 7G show leukemic growth in the blood (FIG. 7F) and in the spleen and BM (FIG. 7G) at week 8 after transplant of AML PDX mice treated with vehicle (gray), VEN/AZA (blue), NC525 (red), or VEN/AZA plus NC525 (green). n=5-10 mice per group. AML cells in spleen and BM compared from 4-5 mice per group. Data are shown as the mean±SEM. P values determined by 2-way ANOVA or 1-way ANOVA with multiple comparisons.

In the next assay the test system is THP-1 cells. Put plainly: THP-1-luciferase cell-derived xenograft (CDX) model. Format: in vivo, NSG mice. The note with it: 10 mg/kg i.p. twice a week. As for the experimental part:
FIGS. 29A-29C display h11B3 LAIR-1 mAbs, containing a variable light chain of SEQ ID NO: 16 and a variable heavy chain of SEQ ID NO:27, limits Leukemic cell growth in CDX Models. 2e6 luciferase-expressing MV4-11-Luc or THP-1-Luc cells were suspended in sterile PBS and implanted into NSG mice via tail-vein injection. Starting on day 8 post-challenge, mice were treated twice-weekly by intraperitoneal (i.p.) injection of 10 mg/kg of h11B3 LAIR-1 mAbs, containing a variable light chain of SEQ ID NO: 16 and a variable heavy chain of SEQ ID NO:27, or isotype (FIG. 29A). AML cell proliferation was monitored by weekly i.p. injection of D-Luciferin, immediately followed by IVIS bioluminescent imaging and quantification of luminescent signal. Mice NOD.Cg-Prkdcscid Il2rgtm1Wjl/SzJ (NSG) purchased from Jackson Labs strain #005557. Substrate Xenolight RediJect D-Luciferin Perkin Elmore Cat #770504. Imaging Perkin Elmore IVIS Lumina XRMS Series III.
NSG mice were injected with 2e6 THP-1 luciferase cells or 2e6 MV4-11-luciferase cells via tail vein injection. Leukemia progression was quantified by i.p. injection of 100 μL bioluminescent substrate and IVIS imaging 8 minutes post injection. Progression was assessed weekly staring on Day 7 post-challenge. […] Tumor growth was measured by calipers twice weekly until end point.

Another assay has as its system human LAIR-1. Put plainly: UT-140 LAIR-1 reporter cell activation (agonism). The format is cell-based. The following applies: upon engagement and crosslinking. As for the experimental part: For cell binding assays, 5e4 UT-140 cells or mouse LAIR-1-transfected 293T cells per well were plated in 200 μL PBS in a 96-well round bottom plate, centrifuged for 4 minutes at 500×g for a single wash, and blocked for 10 minutes on ice with flow cytometry buffer (PBS+2% FBS+0.1 mM EDTA) containing 1:50 dilution of TruStain™ Fc block (Biolegend, San Diego, CA). Cells were subsequently stained for 30 min on ice with titrated concentrations of soluble AF647-labeled LAIR-1 mAb or AF647-labeled isotype control. Cells were then washed 3 times as previously described and binding was measured by flow cytometry using an Attune NXT flow cytometer. For reporter cell assays, flat-bottom 96-well TC plates were coated with 10 μg/mL per well of the indicated antibody in PBS or 2 μg/mL of ligand in 0.01N HCl overnight at 4° C. Wells were washed once with 200 μL sterile PBS. 5e4-to-1e5 cells per well were plated in 100 μL RPMIc containing titrated concentrations of LAIR-1 mAb or isotype control, then incubated overnight at 37° C. The next day, cells were transferred to a 96-well round-bottom plate, centrifuged for 4 minutes at 500×g, and resuspended in 200 μL of flow cytometry buffer. Cells were then centrifuged and resuspended for a total of 3 washes. GFP expression was measured by flow cytometry using an Attune NXT Flow Cytometer.

For another assay, the system named is MV4-11 cells. Put plainly: Phospho-array on in vivo grown MV4-11 cells, subcutaneous CDX model. Also noted: species or system NSG mice. The following applies: 10 mg/kg weekly i.p. On the procedure:
NSG mice were injected with 2e6 THP-1 luciferase cells or 2e6 MV4-11-luciferase cells via tail vein injection. Leukemia progression was quantified by i.p. injection of 100 μL bioluminescent substrate and IVIS imaging 8 minutes post injection. Progression was assessed weekly staring on Day 7 post-challenge. 10 mg/kg mab treatment was performed by i.p injection starting on day 8 and continuing twice a week until the end of the study. For the subcutaneous engraftment model, NSG mice were subcutaneously injected on the right flank with 5e6 MV4-11-Luc-LAIR-1^OE cells. Mice were treated by weekly i.p. injection of 10 mg/kg mAb. Tumor growth was measured by calipers twice weekly until end point.

In the next assay the test system is SoC-resistant AML. Put plainly: PDX model with BM from a VEN/AZA-resistant patient. More on the design: species or system NSG-SGM3 mice. The note with it: mouse, in vivo. On the procedure: as §1
Newborn (3-5 day from birth) NSG-SGM3 pups were sub-lethally (200 cGy) irradiated. […] Leukemia progression in recipient mice was measured by flow cytometry by quantifying the percent of human CD33^+ human CD45^+ cells in peripheral blood at weeks 4, 6, and 10 weeks post-transplant.

Sequence of human LAIR-1 (as listed by the source): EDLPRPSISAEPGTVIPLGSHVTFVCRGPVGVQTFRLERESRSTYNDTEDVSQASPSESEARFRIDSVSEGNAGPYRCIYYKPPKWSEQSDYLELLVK

B1: LAIR-1 mAb: humanized agonist anti-LAIR-1 mAb, IgG1 backbone; h11B3 VL-2 (SEQ ID NO: 16), h11B3 VH-3 (SEQ ID NO: 27) (antibody, V domains shown)
VH: EVQLVESGGGLVQPGGSLKLSCAASGFTFNTNAMYWVRQAPGKGLEWVGRIRSKSSNYATYYAASVKGRFTISRDDSKNTLYLQMNSLKTEDTAVYYCVRGGSGFFAYWGQGTLVTVSS
VL: DIQMTQSPSSLSASLGDRVTITCKASEDIYIRLAWYQQKPGKAPRLLISTATSLETGVPSRFSGSGSGTDYTFTISSLQPEDIATYYCQQYWSTPYTFGGGTRLEIK
modifications: IgG1 constant regions; Synthetic: h11B3 VH-3; Synthetic: h11B3 VL-2
As for B1, the “killing of SoC-resistant AML cells” value in the assay with SoC-resistant AML cells is recorded as “up to 70%”. In addition, in the assay on THP-1 cells, the “leukemic cell growth in vivo” value is given as “inhibited leukemic cell growth”. Besides, in the assay on human LAIR-1, the “human LAIR-1 signaling (agonist)” value is given as “capable of inducing human LAIR-1 signaling”. Besides, in the assay with MV4-11 cells, the MAPK pathway entry is “significantly suppressed”; the “activation of mTORC, AKT, and NF-kB” value is recorded as “inhibited activation”. For the same molecule, the “AML disease (circulating blast cell burden, AML cells in spleen and BM)” value in the assay with SoC-resistant AML is “significantly reduced”.

(Values after patent publication US20240352121A1, “LAIR-1 AGONISTIC ANTIBODIES AND METHODS OF USE THEREOF” (NEXTCURE, INC., priority 2023, published 2024).)
